The values below come from the DeepSol protein solubility set.

This data set in a line: soluble on expression in E. coli; label from the status in PepcDB or PDB records.
In the case of “MGSDKIHHHHHHMGFDVEALKAALEAHGRVIRVVVAEVKGSAPREVGAAMLVWDGGQSGTIGGGTLEFEAADAARRQDAPYRLSTHALGPDLGQCCGGAVTLLSEVYTEVNIAQLTGQVISRAVAPGPEPLAVSRILNHARAQGLAPAPQLIAGWMIEPVACATRPLWIWGAGHVGRALVEVLAPLPDYAITWVDVMRSKYPQEIPASVTALPAQEPGRLVPHAPTEAYHLILTYSHQLDLALCHRLLEHGFDFAGLIGSKTKWARFRARLAALGHRPEQIARLTCPIGMPELGKHPHAIAIGVAAELMALSQRLDLKKEHSA”, the “soluble on expression in E. coli” value is “not soluble”.
For “KFFNLFLKKGNKINPLIGNAGVSAVPDSARISQVIGLEYDPTNYLLMHAM”, the “soluble on expression in E. coli” value is listed as “not soluble”.
In the case of “MGSDKIHHHHHHMNVVVQKYGGSSVATPERIKNVAQRIKKKVDEGYKVVVVVSAMGKTTDNLIKLAKEISPRPDSRELDMLLATGEQVSAALLSMALKDLGVKAKSLNAFQVKIKTTPHHTSARIVDIDDSVIRENLKDYDVLVVTGFQGVNEHGDLTTLGRGGSDTSAVALAAKLRVPCEIYSDVDGIYTCDPRVHPRAKKLAYITYDEALELTALGAKVLHSRSVEIAKKYGIPIYCASSFTEEEGTMVVERLPEWLEEPVVTGATISHGQIKVSISFLPKDVKYITAIFEEVGKRALNVDMISLVPSNGKVFLSFTILEDHKEDLDEALKEALRDVEGWKSTYEGGFAKLSIVGVGMRTSPGVAARFFEALERAGVTPELVTTSEIKISCLVPEEKAEEALKSVIEEFEL”, the “soluble on expression in E. coli” value was “not soluble”.
The same measure for “MDDILSAALAESGLDFLCQQSSPTPSTSGSIHDDAGQSFSNNTHTPSVSQFFDETSNDSHSSSAYYTPMATPFVSTEDGGVPTSFFGMDEEDGGCTIMTTAGTSGSNNIDGIEDAGGGMYYPHVKVIPRKHTAPTVNQSEPSTPTVTIVPKKEDPLFETNTADSPTPSGDTSTTASYEGNDGLEDQETTSDRQNPMFVQTARSTDFATKKNQMAEQAHFLRFSVFWQKSGRLDTPSTSATVSPHITSSLTQRSHTSSPASSASEGTVVPPRKKGLPITTGSIVKRTVQTKDGLQTQYLKAFVNENGEKIYKLLSPVAASAVARGTLPPGMGRGGSTIGRGGTMVNKNGERLMVVKNHVGPNGQMLVKRMVSPAGTRIVANGGQGRGQPIYRGT”: “not soluble”; for “MGSDKIHHHHHHMEPQWDDMKVFLAVARESSLSGAGRVLKMDPATVGRRVARFEAALKTSLFVKSPQGYALSAAGDRLLGHAEAAELAMRAGEEALTGPSDTLSGQIRIGAPDGCANYILPQVCAAISKDNPDLDIQVVALPRVINLSRREADMAVTVSAPTAGKLLVQKITDYHLHLAATRHYLRDNHPIEKLEHLRDHRMIGYIPDMIFDRELDYLNDLGIERVSLASNSVSVQIKMLAEGSALGVVHDFSLPSHRTLRKVLKEEFSLTRSFYLVRHQGDQRSDRLNRFAEALSAGIRAEVERLEGLT”: “not soluble”.
For “MSLNGTFEATKSCPAYLSKNRKSNPDNLMVEPNQKYQLKEINKTKPDWLRIQFSDHQPNLRWVSVDCGVIEYTERPKASCDLSPGMADSYVLALSSQPGFCETYGYEIGKPECLKLTKTVYQANHLILHGLWPNQEACGHNYGYCGISPRTNHCDYSPLDLSSDVAQNLKKLMPSYNYGSCLERHEWNKHGSCQDLSTDGYFSLAMRLTTEVNNTEFGQYLTAHRGDTVKLTTLRELIKRSFGENNTGKVTLSCKNGILVDIYVQLPALIPFKESLESLVDKASEGHHHHHH”, the “soluble on expression in E. coli” value was “not soluble”.
Consider “MLEEDKIKGMFNPKIWDKTFQDGLKKEIEDSQPYNWGTIHELVNDDLLRAVRKEIETEIHFTKKETDIYRVNQSGDLANLSGLDWDDLSRLPNLFKLRQILYSKQYRDFFGYVTKAGKLSGSKTDMSINTYTKGCHLLTHDDVIGSRRISFILYLPDPDRKWKSHYGGGLRLFPSILPNVPHSDPSAKLVPQFNQIAFFKVLPGFSFHDVEEVKVDKHRLSIQGWYHIPQVGEEGYIPGEEEAWVRNNTSTLAQIESNVLEDFEFPKDERNILSFHEVKHFEKMLKGDAGAKTDNTPKESMTSVISDSVKLSEAEFTYLSQYISPEHLSSKGIEKLQKQFVENSSLQIESFLNDDKSELLKKVIKQKELEQECPYHSKDVKAPWKTAIPPHKARYLYIDGKEYRNFQTEADILEALNNNDLPNFQFTKDAIKIISDASGNSRENNFDAELALIDLAVFHKSTIFKKYLALLTSLCPVSEQILIRRFRPGMDFTLATKCRFNELLKSNPDIIDAVLEGTLCLTPSAGWESGELGGYELYMMDDDEDNKQYLKEDVEDASVYRADDSGDSVLINDPPAWNTFNLVLRDESVLEFVKYVSWSAKSSRWDVKMKWDVKSCDEDGQEDEALEHHHHHH”, for which the “soluble on expression in E. coli” value was “soluble”.
The same measure for “MGSDKIHHHHHHMQTLLITSSFDKTCDYIQVKFPELNYFRLNVDKFSSYKLEIIADGFRIECGEHRLFSSECSSIYFRKPVFENLDGNIDVQYHNFVHKESYSLIEGLIESFSGRCLSKPSVMRRANNKVFQIMLAKSVGFLMPQLSITNDEIVLKKWAKDDAIVKPLAIGTVEYKTKKEFVQTNRLSSEKDTSALKYAPVYLQKFVDKDYEVRVTAINGQFFPARIDASNPVDWRKPNTETLFTKCVLPENIEQQCRTYMYKSSMDFGCFDFLVKDNVWYFLEMNANGQWGWLDNLFEGKISDAIATYLKSGLKNAHC”: “not soluble”.
On to “MAEKSLITQETVGMTDEGLPPVLQGRNNSTQQVSFLRARVKCTDQGLITKIGVLPRGAFIKSIKIYAMTDFEDVTATFGKEPHGNDYGDVGLTQSTDSNVYIPMEERDVPLEVENTIYMTRDKKSSKGDVEVIVEFYTNR”, for which the “soluble on expression in E. coli” value was “not soluble”.
The same measure for “MTSLLGGNFTEALHTVLSNQLNVMSQKTSDSEAPTTFSSSSSSDSPPYDPMSLVSAGISDQNGLMDMFKDGLFATLVPPTDVANSDTASSESPEPAAQSHEAAEETGGTEEQQAAALSLIQSFGTPIPSKFEDIESQFFSEATIRDLMPVLASVQGSPPHNQNQLSFGSTSSPSAWARNAGRKKSHPVWDFFKDMKDSTGAGGVICLHCSWSGDDRSPNNLRTHLKKFHSDDGIFNRFSEKLAKMARRKQQESTLVIDPSHSKDDSAFFEGSSGSDAPSTIDTTQLMALLEQSAAAAAAAAAASSSENPITSSLLKKDRTTTTTTEKELSPLTAARASEILFAAGMRPHKKTSEIWEHYKCLNEKQNVECIYCWKVLKRNDSSTKSMWGHMNAYHQDILRDGTTRKKVKRPANGLDFDETPTQPYVKRVRGGAGSSSSLPSMVKMDQKPMLDSMAFLQQLQQSGSLTEADFSSFANGSSLNFLDSLPKSSEVININSGFVKKEEMEEDTENHVEAASSSSSDERIKSETPDTYGSPNTSTTDQNEQLAAFVSSLSNSNPMMFAMLNAAGNSTSSAPAPPKSSTSQQRSSSPPSAHDTSNGSMSPSKVDKDPSSFSLSEGHCAAQLMSMALDLEMTMSYHKRRSEIELCFESNRTVDESQGAASRKVICLTDLGKEIKITERINGSVKDTELWVKTDFNQFHWAIRGKCQKSADASRVPPLVVKPRSSRRSPQPVRRRPPGPRDVSSPTHSFLMRWSFLCTL”: “not soluble”.
With “MKVDKETIEYVANLARLRLSEKEKEKLALDLESIISYVDKLNELDTSKIIPTDHVIPIKNVFRDDEVRDSYPKDKMLMNAPEKEDGCFKVPKVVE”, the “soluble on expression in E. coli” value was “soluble”.
The same measure for “MGSDKIHHHHHHMSVFATFASQTRIQAILVMQTALSVSSRLSLEPTGTDMPVIKGPDGLPFIPGSSIKGVVRFQVERILRTWDRRPDFWACDPFDAPCIPAKKKEQLLNDAETDQSFAETVWKESCTACRLFGSPWFAGRVAFRDAYLLNPEDLPTLTQIRDGVGIDRDLGTARSGIKYDFETVIPGARFGLEILAENLEEWEIGFLLTVLRLWEEGGIAIGGKTTRGPGWGKLQEIKIQRVGISNLMDYLLERKSSEVAATQFLQTFREWLKERGAGDA”: “not soluble”.
Then “MSLSITFFVTGDNHLGYYEKNLTLKDDCYKLFEQYLKEATQKEGSILLQCGDLFNDLRPNKSCVSKTANLIKKYCIGDADIPYTIKDEAELSYPLNITDPYINVKHPLFTIHGTNDEPSGYKLIAGSEILASCGLVNYISPKSFEEEKMLKPVIIVNEHTKIALYGLSVLYSSDLDEIVEDETFHIKKPNGNDWICILLLYIGKGTISQTTKDIIEKHFNIIILGGQHSCNIPTGDFNGSVIIQPGSPFFLSFDEYDEIKKGFVKIVVEGQKIYIEKKEYKPIHRMIKKEVYIPETLRDCVISKRIEDFIQQEMKKCITEAVIKENEQILLKLIVKDCNQDCYPDTKKISSLLEEDVVNFIDCIKVKKEGHHHHHH”, with “not soluble”.
